Measured values from patent publication US20210032365A1 (Chugai, published 2021).
Where a chain is given by its changes, count along the chain named.

T1: human C1s (human, UniProt P09871 16-688)
T1 construct: also called hC1s; serum-derived human C1s (CompTech)
T1 sequence: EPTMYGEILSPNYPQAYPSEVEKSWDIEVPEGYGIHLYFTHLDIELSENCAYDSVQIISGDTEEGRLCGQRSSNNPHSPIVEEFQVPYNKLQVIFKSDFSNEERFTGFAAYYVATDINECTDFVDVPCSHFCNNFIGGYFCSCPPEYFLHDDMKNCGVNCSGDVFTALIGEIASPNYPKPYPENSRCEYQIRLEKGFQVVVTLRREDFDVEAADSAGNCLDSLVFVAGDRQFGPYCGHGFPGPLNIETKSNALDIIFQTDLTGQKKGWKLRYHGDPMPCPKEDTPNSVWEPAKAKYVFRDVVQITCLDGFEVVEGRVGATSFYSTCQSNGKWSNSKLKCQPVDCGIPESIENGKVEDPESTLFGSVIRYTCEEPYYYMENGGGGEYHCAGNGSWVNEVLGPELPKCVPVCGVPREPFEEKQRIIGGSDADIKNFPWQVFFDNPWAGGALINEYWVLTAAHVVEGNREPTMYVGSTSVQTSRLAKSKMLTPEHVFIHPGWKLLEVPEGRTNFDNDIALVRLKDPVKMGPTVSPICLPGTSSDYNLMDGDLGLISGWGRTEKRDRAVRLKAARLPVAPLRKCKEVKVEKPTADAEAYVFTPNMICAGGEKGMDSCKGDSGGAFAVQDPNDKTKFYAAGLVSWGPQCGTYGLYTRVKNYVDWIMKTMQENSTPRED

B1: C1_IPN92H0033-SG4GK/IPN93L0072-SK1 (antibody, human IgG4 S228P, kappa, name in Kabat numbering, V domains shown)
VH: EVMLVESGGGLVKPGGSLRLSCAASGFTFSNYAMSWVRQAPGKGLEWVATISSGGSHTYYLDSVKGRFTISRDNSKDTLYLQMNSLRAEDTALYYCARLFTGHAMDYWGQGTLVTVSS
VL: QIVLTQSPATLSLSPGERATLSCTASSSVKSSYLHWYQQKPGKAPKLWIYSTSNLASGVPSRFSGSGSGTDYTLTISSLQPEDFATYYCHQYYRLHPITFGQGTKLEIKR
notes: also called IPN92H0033/IPN93L0072
B2: C1_IPN92H0261-SG4GK/IPN93L0091-SK1 (antibody, human IgG4 S228P, kappa, name in Kabat numbering, V domains shown)
VH: B1 VH with Y60E, G102K
VL: B1 VL with K30S, Y33R
notes: also called IPN92H0261/IPN93L0091
B3: C1_IPN92H0079-SG4GK/IPN93L0024-SK1 (antibody, human IgG4 S228P, kappa, name in Kabat numbering, V domains shown)
VH: B1 VH with Y32K
VL: B1 VL with K30S
notes: also called IPN92H0079/IPN93L0024
B4: C1_IPN92H0162-SG4GK/IPN93L0024-SK1 (antibody, human IgG4 S228P, kappa, name in Kabat numbering, V domains shown)
VH: B1 VH with Y60K
VL: B1 VL with K30S
notes: also called IPN92H0162/IPN93L0024
B5: C1_IPN92H0253-SG4GK/IPN93L0024-SK1 (antibody, human IgG4 S228P, kappa, name in Kabat numbering, V domains shown)
VH: B1 VH with D106K
VL: B1 VL with K30S
notes: also called IPN92H0253/IPN93L0024
B6: C1_IPN92H0281-SG4GK/IPN93L0024-SK1 (antibody, human IgG4 S228P, kappa, name in Kabat numbering)
heavy: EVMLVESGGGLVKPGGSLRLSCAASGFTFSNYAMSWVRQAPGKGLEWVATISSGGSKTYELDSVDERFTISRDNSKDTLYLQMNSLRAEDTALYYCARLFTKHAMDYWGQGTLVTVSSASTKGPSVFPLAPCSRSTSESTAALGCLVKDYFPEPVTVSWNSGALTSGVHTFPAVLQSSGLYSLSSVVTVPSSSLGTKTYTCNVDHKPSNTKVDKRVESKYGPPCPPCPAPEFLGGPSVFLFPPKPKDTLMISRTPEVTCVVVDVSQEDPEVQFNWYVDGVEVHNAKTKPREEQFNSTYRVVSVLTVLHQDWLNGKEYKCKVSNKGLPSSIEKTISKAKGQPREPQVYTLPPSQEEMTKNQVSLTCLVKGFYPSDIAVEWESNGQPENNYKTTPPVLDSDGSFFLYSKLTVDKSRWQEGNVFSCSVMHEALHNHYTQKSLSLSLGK
light: QIVLTQSPATLSLSPGERATLSCTASSSVSSSYLHWYQQKPGKAPKLWIYSTSNLASGVPSRFSGSGSGTDYTLTISSLQPEDFATYYCHQYYRLHPITFGQGTKLEIKRTVAAPSVFIFPPSDEQLKSGTASVVCLLNNFYPREAKVQWKVDNALQSGNSQESVTEQDSKDSTYSLSSTLTLSKADYEKHKVYACEVTHQGLSSPVTKSFNRGEC
notes: also called IPN92H0281/IPN93L0024
B7: C1_IPN92H0159-SG4GK/IPN93L0024-SK1 (antibody, human IgG4 S228P, kappa, name in Kabat numbering, V domains shown)
VH: B1 VH with Y60D
VL: B1 VL with K30S
notes: also called IPN92H0159/IPN93L0024
B8: C1_IPN92H0117-SG4GK/IPN93L0024-SK1 (antibody, human IgG4 S228P, kappa, name in Kabat numbering, V domains shown)
VH: B1 VH with S53Q
VL: B1 VL with K30S
notes: also called IPN92H0117/IPN93L0024
B9: C1_IPN92H0166-SG4GK/IPN93L0024-SK1 (antibody, human IgG4 S228P, kappa, name in Kabat numbering, V domains shown)
VH: B1 VH with L61E
VL: B1 VL with K30S
notes: also called IPN92H0166/IPN93L0024
B10: C1_IPN92H0231-SG4GK/IPN93L0024-SK1 (antibody, human IgG4 S228P, kappa, name in Kabat numbering, V domains shown)
VH: B1 VH with G102K
VL: B1 VL with K30S
notes: also called IPN92H0231/IPN93L0024
B11: C1_IPN92H0157-SG4GK/IPN93L0024-SK1 (antibody, human IgG4 S228P, kappa, name in Kabat numbering, V domains shown)
VH: B1 VH with Y59R
VL: B1 VL with K30S
notes: also called IPN92H0157/IPN93L0024
B12: C1_IPN92H0091-SG4GK/IPN93L0024-SK1 (antibody, human IgG4 S228P, kappa, name in Kabat numbering, V domains shown)
VH: B1 VH with M34K
VL: B1 VL with K30S
notes: also called IPN92H0091/IPN93L0024
B13: C1_IPN92H0145-SG4GK/IPN93L0024-SK1 (antibody, human IgG4 S228P, kappa, name in Kabat numbering, V domains shown)
VH: B1 VH with H57R
VL: B1 VL with K30S
notes: also called IPN92H0145/IPN93L0024
B14: C1_IPN92H0232-SG4GK/IPN93L0024-SK1 (antibody, human IgG4 S228P, kappa, name in Kabat numbering, V domains shown)
VH: B1 VH with G102R
VL: B1 VL with K30S
notes: also called IPN92H0232/IPN93L0024
B15: C1_IPN92H0156-SG4GK/IPN93L0024-SK1 (antibody, human IgG4 S228P, kappa, name in Kabat numbering, V domains shown)
VH: B1 VH with Y59K
VL: B1 VL with K30S
notes: also called IPN92H0156/IPN93L0024
B16: C1_IPN92H0188-SG4GK/IPN93L0024-SK1 (antibody, human IgG4 S228P, kappa, name in Kabat numbering, V domains shown)
VH: B1 VH with K65D
VL: B1 VL with K30S
notes: also called IPN92H0188/IPN93L0024
B17: C1_IPN92H0033-SG4GK/IPN93L0090-SK1 (antibody, human IgG4 S228P, kappa, name in Kabat numbering, V domains shown)
VH: B1 VH
VL: B1 VL with K30S, Y33K
notes: also called IPN92H0033/IPN93L0090
B18: C1_IPN92H0279-SG4GK/IPN93L0091-SK1 (antibody, human IgG4 S228P, kappa, name in Kabat numbering, V domains shown)
VH: B1 VH with Y60E, G66E, G102K
VL: B1 VL with K30S, Y33R
notes: also called IPN92H0279/IPN93L0091
B19: C1_IPN92H0194-SG4GK/IPN93L0024-SK1 (antibody, human IgG4 S228P, kappa, name in Kabat numbering, V domains shown)
VH: B1 VH with G66E
VL: B1 VL with K30S
notes: also called IPN92H0194/IPN93L0024
B20: C1_IPN92H0160-SG4GK/IPN93L0024-SK1 (antibody, human IgG4 S228P, kappa, name in Kabat numbering, V domains shown)
VH: B1 VH with Y60E
VL: B1 VL with K30S
notes: also called IPN92H0160/IPN93L0024
B21: C1_IPN92H0193-SG4GK/IPN93L0024-SK1 (antibody, human IgG4 S228P, kappa, name in Kabat numbering, V domains shown)
VH: B1 VH with G66D
VL: B1 VL with K30S
notes: also called IPN92H0193/IPN93L0024
B22: C1_IPN92H0147-SG4GK/IPN93L0024-SK1 (antibody, human IgG4 S228P, kappa, name in Kabat numbering, V domains shown)
VH: B1 VH with T58D
VL: B1 VL with K30S
notes: also called IPN92H0147/IPN93L0024
B23: C1_IPN92H0165-SG4GK/IPN93L0024-SK1 (antibody, human IgG4 S228P, kappa, name in Kabat numbering, V domains shown)
VH: B1 VH with L61D
VL: B1 VL with K30S
notes: also called IPN92H0165/IPN93L0024
B24: C1_IPN92H0061-SG4GK/IPN93L0024-SK1 (antibody, human IgG4 S228P, kappa, name in Kabat numbering, V domains shown)
VH: B1 VH with F29K
VL: B1 VL with K30S
notes: also called IPN92H0061/IPN93L0024
B25: C1_IPN92H0144-SG4GK/IPN93L0024-SK1 (antibody, human IgG4 S228P, kappa, name in Kabat numbering, V domains shown)
VH: B1 VH with H57K
VL: B1 VL with K30S
notes: also called IPN92H0144/IPN93L0024

Target: T1, human C1s
Assay: SPR, Ab captured; pH 7.4, 1.2 mM Ca
Protocol: Each antibody was captured onto the sensor surface by protein A/G. Antibody capture levels were aimed at 200 resonance unit (RU). Serum-derived human C1s (CompTech) or recombinant C1s prepared in EXAMPLE 1 was injected at 50 nM, followed by dissociation. The sensor surface was regenerated in each cycle with 10 mM Glycine-HCl, pH 1.5. […] The ratio of KD 5.8+ to KD 7.4+(“KD 5+/7+”) and that of KD 5.8− to KD 7.4+(“KD 5−/7+”) were calculated. When the KD 5+/7+ or KD 5−/7+ of a variant is larger than that of the parent antibody IPN009VH2-SG4GK/IPN009VK3-SK1, that variant is considered to be “pH”- or “pH and Ca”-dependent, respectively. When binding response in 5(+) buffer and/or in 5(−) buffer of a variant is much lower than that of IPN09VH2/IPN009VK3, that variant is also considered as “pH”- and/or “pH and Ca”-dependent. Therefore, such mutations are effective to generate “pH”- and/or “pH and Ca”-dependent antibody. To further enhance “pH” and/or “pH and Ca” dependency, a combination of histidine mutations was conducted. Antibodies with combinations of histidine mutations were evaluated using Biacore by the method described above.
C1_1IPN92H0033 (SEQ ID NO: 17)-SG4GK/IPN93L0024 (SEQ ID NO: 18)-SK1 (IPN92H0033/IPN93L0024) was selected for further optimization. Histidine, Lysine, Arginine, aspartic acid, glutamic acid, and glutamine scanning was conducted for CDRs and certain positions of FRs of IPN92H0033/IPN93L0024. Variants with a mutation were generated and purified, and evaluated using Biacore by the method mentioned above. All variants were evaluated using Biacore as mentioned above. Mutations that improved “pH” and/or “pH and Ca” dependency were selected for the combination.

Binder | Kd | koff | kon
B1 | 1.37 nM | 0.000567 s⁻¹ | 413000 M⁻¹ s⁻¹
B2 | 0.985 nM | 0.000774 s⁻¹ | 786000 M⁻¹ s⁻¹
B3 | 3.36 nM | 0.00125 s⁻¹ | 373000 M⁻¹ s⁻¹
B4 | 1.8 nM | 0.000545 s⁻¹ | 303000 M⁻¹ s⁻¹
B5 | 0.121 nM | 6.9e-05 s⁻¹ | 569000 M⁻¹ s⁻¹
B6 | 2.52 nM | 0.001 s⁻¹ | 396000 M⁻¹ s⁻¹
B7 | 2.06 nM | 0.000621 s⁻¹ | 302000 M⁻¹ s⁻¹
B8 | 3.41 nM | 0.000863 s⁻¹ | 253000 M⁻¹ s⁻¹
B9 | 1.76 nM | 0.000518 s⁻¹ | 294000 M⁻¹ s⁻¹
B10 | 1.3 nM | 0.000577 s⁻¹ | 444000 M⁻¹ s⁻¹
B11 | 2.03 nM | 0.000689 s⁻¹ | 340000 M⁻¹ s⁻¹
B12 | 2.69 nM | 0.000746 s⁻¹ | 277000 M⁻¹ s⁻¹
B13 | 4.71 nM | 0.00157 s⁻¹ | 333000 M⁻¹ s⁻¹
B14 | 1.5 nM | 0.000609 s⁻¹ | 406000 M⁻¹ s⁻¹
B15 | 2.12 nM | 0.000771 s⁻¹ | 364000 M⁻¹ s⁻¹
B16 | 2.03 nM | 0.000551 s⁻¹ | 271000 M⁻¹ s⁻¹
B17 | 1.4 nM | 0.000676 s⁻¹ | 482000 M⁻¹ s⁻¹
B18 | 0.686 nM | 0.000897 s⁻¹ | 1.31e+06 M⁻¹ s⁻¹
B19 | 0.885 nM | 0.000468 s⁻¹ | 529000 M⁻¹ s⁻¹
B20 | 1.52 nM | 0.000558 s⁻¹ | 368000 M⁻¹ s⁻¹
B21 | 0.925 nM | 0.000474 s⁻¹ | 513000 M⁻¹ s⁻¹
B22 | 2.05 nM | 0.000765 s⁻¹ | 374000 M⁻¹ s⁻¹
B23 | 1.77 nM | 0.000512 s⁻¹ | 289000 M⁻¹ s⁻¹
B24 | 6.85 nM | 0.00161 s⁻¹ | 236000 M⁻¹ s⁻¹
B25 | 3.68 nM | 0.00126 s⁻¹ | 343000 M⁻¹ s⁻¹
